Measured values as given in patent US20080317723A1, “LYMPHATIC ENDOTHELIAL CELLS MATERIALS AND METHODS” (VEGENICS LIMITED, priority 2001, published 2008).

Key:
Type in all cases: cell-based, human
[1] = system: HMVE cells; experiment: Boyden chamber cell migration assay; conditions: 6 h, VEGF 10 ng/ml, VEGF-C 500 ng/ml, VEGF-D 500 ng/ml, VEGF-C156S 3 μg/ml
Description: FIG. 5. VEGFR-3 mediates endothelial cell migration. The migration of HMVE cells in the presence of different VEGFs in a Boyden chamber assay. […] Data represent mean values from three independent experiments (mean±s.d.). The growth factor concentrations used are: VEGF 10 ng/ml, VEGF-C 500 ng/ml, VEGF-D 500 ng/ml and VEGF-C156S 3 μg/ml.
Cell migration assay. Migration assays were performed in a 48-well chemotaxis Boyden chamber (Neuroprobe Inc.). Eight micron Nucleopore polycarbonate filters (Corning) were coated with 100 μg/ml of collagen type I (Upstate Biotechnology) overnight at +4° C. and air dried. The filters were placed over the lower chamber wells containing the growth factors in serum-free growth medium supplemented with 0.2% BSA. For blocking experiments, VEGF and VEGF-C156S were preincubated with a ten-fold molar excess of soluble human VEGFR-3 for 30 min. HMVE cells were suspended in the growth medium and 10,000 cells in 50 μl were added to each well in the upper chamber. The cells were allowed to migrate for 6 h at 37° C. after which the filter was fixed with cold methanol and stained with hematoxylin (Meyer). Non-migrated cells on the upper surface of the filter were removed by scraping with a cotton swab and the number of migrated cells was counted. The assays were run in quadruplicate and repeated with three different batches of HMVECs.

[2] = system: Akt; experiment: Akt phosphorylation in HMVE cells, Western blot; conditions: for Akt phosphorylation at Ser473 on growth factor stimulation: HMVE cells; for time of maximal (peak) Akt phosphorylation after exposure: HMVEC, FIG. 4
Description: (§1) Western blot analysis. Endothelial cells were cultured on 35 mm dishes to near confluence, starved for 24 h in serum free medium and stimulated as indicated. Wortmannin ([…]), LY294002 ([…]), PD98059 (10-25 μM) or GF109203X (2.5-5 μM) were added 1-3 h before stimulation, where indicated. DMSO, into which the inhibitors were dissolved, was used as a control. After the stimulation, the cells were lysed in lysis buffer (50 mM HEPES, pH 7.5, 150 mM NaCl, 10 mM EDTA, 100 mM NaF, 1% TritonX-100 supplemented with 2 mM Na3VO4, 0.5 mM PMSF, 100 U/ml approtinin and 10 μg/ml leupeptin). Clarified lysates were separated by SDS-PAGE, transferred to nitrocellulose and immunoblotted using the phosphospecific antibodies for Akt-Ser473, Akt-Thr308, p42/44 MAPK-Thr202/Tyr204 or CREB-Ser133. The bound antibodies were detected using horseradish peroxidase conjugated secondary antibodies and enhanced chemiluminescence detection system. The blots were stripped and reprobed with antibodies against Akt, MAPK or CREB for quantification by reading the optical densities of the signals with Multi-Analyst 2.0.1 program (Bio-Rad).
As discussed in the background, a major signal transduction pathway by which growth factor receptors can promote cell survival employs the PI-3-kinase and its downstream target, the serine-threonine kinase Akt. The effect of the different VEGFs on Akt was analyzed by assessing Akt phosphorylation in serine 473 and threonine 308 using phosphospecific antibodies.

[3] = system: VEGFR-3 expressing lymphatic endothelial cells; experiment: Serum starvation-induced apoptosis, cytoplasmic mono- and oligonucleosomes, isolated VEGFR-3 positive cells; conditions: for cell survival during serum starvation: VEGFR-3 expressing cells, FIG. 2B
From the text: FIG. 2A-FIG. 2B. VEGFR-2 and VEGFR-3, but not VEGFR-1 activating ligands inhibit apoptosis of serum-deprived HMVE cells. Measurement of the cytoplasmic histone-associated DNA fragments (mono- and oligonucleosomes) in serum-starved HMVE cells consisting of two cell populations of blood vascular and lymphatic endothelial cells (FIG. 2A) or in the isolated cell populations after magnetic cell sorting using VEGFR-3 antibodies (FIG. 2B). The enrichment factor of cytoplasmic oligonucleosomes in the apoptotic cells grown for 24 h in serum-free medium (BSA) was chosen as 100 (%). Data represent mean values from three independent experiments (mean±s.d.). […] Isolation of lymphatic and blood vascular endothelial cells. […] Analysis of endothelial cell apoptosis. For the apoptosis assay, 70,000 cells per well were seeded into 24-well plates. Treatments were done in duplicates and apoptosis was detected by measuring cytoplasmic histone-associated DNA fragments using the death detection ELISA PLUS kit (Roche, Indianapolis, Ind.). […] Annexin-V-FLUOS (Roche, Indianapolis, Ind.) was used to detect phosphatidylserine on the apoptotic cells by fluorescence microscopy according to the instructions of the manufacturer. The simultaneous staining with propidium iodide (1 μg/ml) was used for discriminating possible necrotic cells.

[4] = system: HMVE cells; experiment: Serum starvation-induced apoptosis, cytoplasmic histone-associated DNA fragments (ELISA), non-sorted HMVE cells; conditions: non-sorted microvascular endothelial cells, serum-free 24 h, FIG. 2A
From the text: FIG. 2A-FIG. 2B. VEGFR-2 and VEGFR-3, but not VEGFR-1 activating ligands inhibit apoptosis of serum-deprived HMVE cells. Measurement of the cytoplasmic histone-associated DNA fragments (mono- and oligonucleosomes) in serum-starved HMVE cells consisting of two cell populations of blood vascular and lymphatic endothelial cells (FIG. 2A) or in the isolated cell populations after magnetic cell sorting using VEGFR-3 antibodies (FIG. 2B). The enrichment factor of cytoplasmic oligonucleosomes in the apoptotic cells grown for 24 h in serum-free medium (BSA) was chosen as 100 (%). Data represent mean values from three independent experiments (mean±s.d.). […] Analysis of endothelial cell apoptosis. For the apoptosis assay, 70,000 cells per well were seeded into 24-well plates. Treatments were done in duplicates and apoptosis was detected by measuring cytoplasmic histone-associated DNA fragments using the death detection ELISA PLUS kit (Roche, Indianapolis, Ind.). […] Annexin-V-FLUOS (Roche, Indianapolis, Ind.) was used to detect phosphatidylserine on the apoptotic cells by fluorescence microscopy according to the instructions of the manufacturer. The simultaneous staining with propidium iodide (1 μg/ml) was used for discriminating possible necrotic cells.

[5] = system: p42/p44 MAPK; experiment: p42/p44 MAPK Thr202/Tyr204 phosphorylation in HMVE cells, Western blot
Description: as §1
The p42/p44 MAPK activation was detected by Western blotting using phospho-Thr202/Tyr204-MAPK specific antibodies and CREB phosphorylation using phospho-Ser133 specific antibodies. The growth factor concentrations used were: VEGF 10 ng/ml, VEGF-C 100 ng/ml and VEGF-C156S 500 ng/ml. […] Effects of inhibition of protein kinase C by GF109203X, MEK1 by PD98059 and PI-3 kinase by LY294002 on p42/p44 MAPK Thr202/Tyr204 phosphorylation, CREB Ser133 phosphorylation and Akt Ser473 phosphorylation in HMVE cells. The growth factor concentrations used were: VEGF 1 ng/ml, VEGF-C 10 ng/ml and VEGF-C156S 500 ng/ml

[6] = serum-deprived lymphatic endothelial cells

| Molecule | stimulation of HMVE cell migration [1] | Akt phosphorylation at Ser473 on growth factor stimulation [2] | time of maximal (peak) Akt phosphorylation after exposure [2] [min] | cell survival during serum starvation [3] | protection from starvation induced DNA degradation (cytoplasmic histone-associated DNA fragments) [4] | duration of MAPK activation, in words [5] | p42/p44 MAPK activation (phosphorylation) [5] | accumulation of oligo- and mononucleosomes [3, 6] | concentration at which the maximum effect was achieved (inhibition of oligo- and mononucleosome accumulation) [3, 6] [ng/mL] |
| --- | --- | --- | --- | --- | --- | --- | --- | --- | --- |
| VEGF | ten-fold stimulation of cell migration | phosphorylated at Ser473 | 20 to 30 | promoted cell survival | able to protect microvascular endothelial cells from starvation induced DNA degradation | more transient than that induced by VEGF-C | significantly stronger | – | – |
| VEGF-C156S: VEGFR-3 specific mutant form of VEGF-C, cysteine 156 changed into serine; recombinant human (Thr103 to Ile225) (protein, UniProt P49767 103-225, looked up, variant C156S) TEETIKFAAAHYNTEILKSIDNEWRKTQCMPREVCIDVGKEFGVATNTFFKPPSVSVYRCGGCCNSEGLQCMNTSTSYLSKTLFEITVPLSQGPKPVTISFANHTSCRCMSKLDVYRQVHSII | induced the migration of HMVE cells | phosphorylated at Ser473 | 30 to 40 | induced the survival of only the VEGFR-3 positive cells | able to protect microvascular endothelial cells from starvation induced DNA degradation | – | MAPK activation in HMVE cells was detected | inhibited dose-dependently | 500 |
